US20180177842A1 (CANIMGUIDE THERAPEUTICS, published 2018)

Biological target: T1, P3028 (VFDEFKPLVEEPQNLIK, SEQ ID NO: 185), His-tagged (human)
T1 construct: Synthetic fragment of human serum albumin (positions 397-413); used in solution as His-tagged peptide PGE73; also called PGE73; not shown: His-tag
T1 peptide: VFDEFKPLVEEPQNLIK
Experiment: PEPSCAN ELISA; peptide on chip, His-P3028 added;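 note: peroxidase color development with ABTS and H2O2 substrate, OD405 imaged by CCD camera with image processing and taken as raw values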

KKLDTFEVKLSLFTER [KKLDTFEVKLSLFTER (SEQ ID NO: 424)]
RAMPO Score: 381 rampo units

KKLDTFFVKLSLFAER [KKLDTFFVKLSLFAER (SEQ ID NO: 489)]
RAMPO Score: 305 rampo units

KKLDTFFVKLKLFTER [KKLDTFFVKLKLFTER (SEQ ID NO: 473)]
RAMPO Score: 323 rampo units

KKLDTFFVKHSLFTER [KKLDTFFVKHSLFTER (SEQ ID NO: 502)]
RAMPO Score: 293 rampo units

KKLDTFFVHLSLFTER [KKLDTFFVHLSLFTER (SEQ ID NO: 488)]
RAMPO Score: 306 rampo units

KKLDTFFVKLSLFRER [KKLDTFFVKLSLFRER (SEQ ID NO: 33)]
RAMPO Score: 264 rampo units

KKLDTFFVKLSLFTDR [KKLDTFFVKLSLFTDR (SEQ ID NO: 387)]
RAMPO Score: 404 rampo units

KKLDTFFVKLSKFTER [KKLDTFFVKLSKFTER (SEQ ID NO: 438)]
RAMPO Score: 355 rampo units

KKLDTFFVKLILFTER [KKLDTFFVKLILFTER (SEQ ID NO: 505)]
RAMPO Score: 289 rampo units

KKLDTFFVKLSLFTEF [KKLDTFFVKLSLFTEF (SEQ ID NO: 388)]
RAMPO Score: 297 rampo units

KKLDTFFRKLSLFTER [KKLDTFFRKLSLFTER (SEQ ID NO: 330)]
RAMPO Score: 365 rampo units

KKLDTFFVKLSLFGER [KKLDTFFVKLSLFGER (SEQ ID NO: 377)]
RAMPO Score: 343 rampo units

KKLDTFFVKLPLFTER [KKLDTFFVKLPLFTER (SEQ ID NO: 470)]
RAMPO Score: 328 rampo units

KKLDTFFVKLALFTER [KKLDTFFVKLALFTER (SEQ ID NO: 477)]
RAMPO Score: 318 rampo units

KKLDTFFVKLSLFIER [KKLDTFFVKLSLFIER (SEQ ID NO: 379)]
RAMPO Score: 375 rampo units

KKLDTFFLKLSLFTER [KKLDTFFLKLSLFTER (SEQ ID NO: 328)]
RAMPO Score: 411 rampo units

KKLDTFFVKLSLFTEN [KKLDTFFVKLSLFTEN (SEQ ID NO: 390)]
RAMPO Score: 311 rampo units

KKLDTFFVKISLFTER [KKLDTFFVKISLFTER (SEQ ID NO: 335)]
RAMPO Score: 415 rampo units

KKLDTFFVKLELFTER [KKLDTFFVKLELFTER (SEQ ID NO: 532)]
RAMPO Score: 234 rampo units

KKLDTFFVKLHLFTER [KKLDTFFVKLHLFTER (SEQ ID NO: 345)]
RAMPO Score: 535 rampo units

KKLDTFFTKLSLFTER [KKLDTFFTKLSLFTER (SEQ ID NO: 496)]
RAMPO Score: 298 rampo units

KKLDTFFVKLRLFTER [KKLDTFFVKLRLFTER (SEQ ID NO: 464)]
RAMPO Score: 333 rampo units

KKLDTFFVKLSLFPER [KKLDTFFVKLSLFPER (SEQ ID NO: 383)]
RAMPO Score: 551 rampo units

KKLDTFFVKLSLFTET [KKLDTFFVKLSLFTET (SEQ ID NO: 392)]
RAMPO Score: 292 rampo units

KKLDTFFVKLSGFTER [KKLDTFFVKLSGFTER (SEQ ID NO: 431)]
RAMPO Score: 370 rampo units

KKLDTFFVKLSLFMER [KKLDTFFVKLSLFMER (SEQ ID NO: 381)]
RAMPO Score: 501 rampo units

KKLDTFFVKLSLFFER [KKLDTFFVKLSLFFER (SEQ ID NO: 376)]
RAMPO Score: 348 rampo units

KKLDTFFVKLNLFTER [KKLDTFFVKLNLFTER (SEQ ID NO: 347)]
RAMPO Score: 451 rampo units

KKLDTFFQKLSLFTER [KKLDTFFQKLSLFTER (SEQ ID NO: 513)]
RAMPO Score: 271 rampo units

KKLDTFFVKLSLFLER [KKLDTFFVKLSLFLER (SEQ ID NO: 380)]
RAMPO Score: 360 rampo units

KKLDTFFVKCSLFTER [KKLDTFFVKCSLFTER (SEQ ID NO: 508)]
RAMPO Score: 283 rampo units

KKLDTFFVKFSLFTER [KKLDTFFVKFSLFTER (SEQ ID NO: 333)]
RAMPO Score: 403 rampo units

KKLDTFFVKLSCFTER [KKLDTFFVKLSCFTER (SEQ ID NO: 455)]
RAMPO Score: 342 rampo units

KKLDTFFVKLSAFTER [KKLDTFFVKLSAFTER (SEQ ID NO: 350)]
RAMPO Score: 462 rampo units

KKLDTFFVKLCLFTER [KKLDTFFVKLCLFTER (SEQ ID NO: 457)]
RAMPO Score: 341 rampo units

KKLDTFFVKLSIFTER [KKLDTFFVKLSIFTER (SEQ ID NO: 352)]
RAMPO Score: 456 rampo units

KKLDTFFVKLSLFTEM [KKLDTFFVKLSLFTEM (SEQ ID NO: 529)]
RAMPO Score: 238 rampo units

KKLDTFFFKLSLFTER [KKLDTFFFKLSLFTER (SEQ ID NO: 326)]
RAMPO Score: 358 rampo units

KKLDTFFVKLSLFSER [KKLDTFFVKLSLFSER (SEQ ID NO: 384)]
RAMPO Score: 369 rampo units

KKLDTFFVKLSHFTER [KKLDTFFVKLSHFTER (SEQ ID NO: 351)]
RAMPO Score: 460 rampo units

KKLDTFFVKLFLFTER [KKLDTFFVKLFLFTER (SEQ ID NO: 522)]
RAMPO Score: 250 rampo units

KKLDTFFVELSLFTER [KKLDTFFVELSLFTER (SEQ ID NO: 527)]
RAMPO Score: 240 rampo units

KKLDTFFVKLSFFTER [KKLDTFFVKLSFFTER (SEQ ID NO: 422)]
RAMPO Score: 389 rampo units

KKLDTFFVKLMLFTER [KKLDTFFVKLMLFTER (SEQ ID NO: 346)]
RAMPO Score: 744 rampo units

KKLDTFFVKLSLFQER [KKLDTFFVKLSLFQER (SEQ ID NO: 493)]
RAMPO Score: 301 rampo units

KKLDTFFVKGSLFTER [KKLDTFFVKGSLFTER (SEQ ID NO: 334)]
RAMPO Score: 495 rampo units

KKLDTFFVKLSLATER [KKLDTFFVKLSLATER (SEQ ID NO: 361)]
RAMPO Score: 525 rampo units

KKLDTFFVKLSLCTER [KKLDTFFVKLSLCTER (SEQ ID NO: 362)]
RAMPO Score: 400 rampo units

KKLDTFFVKLSLFTEH [KKLDTFFVKLSLFTEH (SEQ ID NO: 528)]
RAMPO Score: 239 rampo units

KKLDTFFVKLQLFTER [KKLDTFFVKLQLFTER (SEQ ID NO: 348)]
RAMPO Score: 768 rampo units

KKLDTFFPKLSLFTER (also called 32251) [KKLDTFFPKLSLFTER (SEQ ID NO: 329)]
RAMPO Score: 456 rampo units

KKLDTFFVKLSLFTEK [KKLDTFFVKLSLFTEK (SEQ ID NO: 389)]
RAMPO Score: 291 rampo units

KKLDTFFIKLSLFTER [KKLDTFFIKLSLFTER (SEQ ID NO: 416)]
RAMPO Score: 401 rampo units

KKLDTFFVKLSLFHER [KKLDTFFVKLSLFHER (SEQ ID NO: 378)]
RAMPO Score: 463 rampo units

KKLDTFFVKLSLFKER [KKLDTFFVKLSLFKER (SEQ ID NO: 517)]
RAMPO Score: 259 rampo units

KKLDTFFVKKSLFTER [KKLDTFFVKKSLFTER (SEQ ID NO: 506)]
RAMPO Score: 285 rampo units

KKLDTFFVKLSLFCER [KKLDTFFVKLSLFCER (SEQ ID NO: 520)]
RAMPO Score: 254 rampo units

KKLDTFFCKLSLFTER [KKLDTFFCKLSLFTER (SEQ ID NO: 519)]
RAMPO Score: 254 rampo units

KKLDTFFVKLDLFTER [KKLDTFFVKLDLFTER (SEQ ID NO: 474)]
RAMPO Score: 322 rampo units

KKLDTFFAKLSLFTER [KKLDTFFAKLSLFTER (SEQ ID NO: 495)]
RAMPO Score: 299 rampo units

KKLDTFFVKASLFTER [KKLDTFFVKASLFTER (SEQ ID NO: 332)]
RAMPO Score: 426 rampo units

KKLDTFFVKLSLFTEV [KKLDTFFVKLSLFTEV (SEQ ID NO: 521)]
RAMPO Score: 254 rampo units

KKLDTFFVKLGLFTER [KKLDTFFVKLGLFTER (SEQ ID NO: 99)]
RAMPO Score: 288 rampo units

KKLDTFFGKLSLFTER [KKLDTFFGKLSLFTER (SEQ ID NO: 327)]
RAMPO Score: 379 rampo units

KKLDTFFVKLSLFNER [KKLDTFFVKLSLFNER (SEQ ID NO: 382)]
RAMPO Score: 599 rampo units
